The data set can be described thus: label from the status in PepcDB records.
On to “MTPSLSGLPPIRTALIGYGFAGKTFHAPLIRAVPALCLEHVVSRDPGRVHADLPEARVSADPDEAIEAADIDLVVIASPNATHASLAERALRAGKHVVVDKPFTVTLAEARRLADLARERPGQVLSVFQNRRFDSDFLAVEAALQAGSIGPVRYFESAIERFRPQVRDRWREHDLPGSGLWFDLGPHLLDQALCLFGVPQRVHGHLRRLREGALTDDWFEVLLDYPHCQVALRASMLAANPAPRFNVHGDHGSLLKAGADIQEAQLLQGLHPGSAGWGRDPDLLQHIDGQGLRQSLVTPAGDQSRYYQALAAAIRGQSRNPVSAQQACALMALLELARRSAEEGRSLPVELRDEERQAWN”, for which the protein production entry is “failed”. The entry for “MTPTPSFAAYVGAHWAAVVIYVIATVVNVYGLLFRSEPAERWSYRLISVGWMIHSVVIAYWWWVTGHGPYLSRNEVLSSDAWIALTVFMCFQRLYPRVRPASIVVFPSVFLMIALGLFFDVQIRTLPPTFSGIWLVIHIAFYKIALGTILIALACSIFLVLKKRTPFAWLQRLPDLESLDLHAYRFAGFGFIIWAIAMLAGSIWAYKSWGRFWGWDPVENWSLITWILFGIHLHLRRFFRWSGERAALFYVVCFIFSLVALFYTSHMDTSIHMEYFR” is “failed”; for “MTPYRRILLIMTEAQANAALSRAMALSAASGASLHVLGIHESGVLRLPHELQEAPLHSASFMHFSTELKALLDEQSFVGARPGFEAVETSNPRDQLPACIARYAPDLVIKGCPGHSLLEQIARTSLDQALLH” it is “failed”; for “MTQDEWIDIPQGWSQGRTIYGGLVAGLLMHKALSVMNDESKNLLSTSITFVGPVNEGRVRLTVEILRQGKSVTTIEARLWQDQAVQTILIASFGQPRSLEHHHHHH” it is “not failed”. The entry for “MTQELQTLEVEEEMMMRKFYELMSRQRLNKKMIMLVLIEIDVGSFEENGEDSKCVTWTERHKPLKGNNAAGVLPLQRLVRDGLLAYGPEVF” is “failed”; for “MTQKEWPLWEVFVRSKQGLEHKHCGSLHATDAQQALHMARDVYTRRQEGVSIWVVPSTAITASAPEEKPELFDPMADKIYRHPTFYQLPDEVNHM” it is “not failed”; for “MTQKRKLDAASPGDPHDFAADGIERQTLRMVEQALRADRLMLAWQPVVVASEAARTVFHEGLIRVLDETGRIIPARDFMSAVETQDLGRLIDCASLEKGLATLARHPGLRLSINMSARSIGHGRWMQILQGALRADPNLGPRLILEITESSAMEVPELVLPFMDALQRAGISFALDDFGAGFTAFRYLKDFFFDIIKIDGQFIRNIHRDPDNQVLTQAMLSVGRHFDMLTVAETVETAEEAEWLRAAGVDCLQGYLFGRPCTQPAWQATGTRLIA” it is “failed”. The entry for “MTQPSGLKNLLRAAAGALPVVPRTDQLPNRTVTVEELPIDPANVAAYAAVTGLRYGNQVPLTYPFALTFPSVMSLVTGFDFPFAAMGAIHTENHITQYRPIAVTDAVGVRVRAENLREHRRGLLVDLVTNVSVGNDVAWHQVTTFLHQQRTSLSGEPKPPPQKKPKLPPPAAVLRITPAKIRRYAAVGGDHNPIHTNPIAAKLFGFPTVIAHGMFTAAAVLANIEARFPDAVRYSVRFAKPVLLPATAGLYVAEGDGGWDLTLRNMAKGYPHLTATVRGL” is “failed”; for “MTQQHPHLLEPELGEFLTALKNTPSRLTARTAAWLCIWTASRPGMVRLAEWKEFDLDKATWTTPAAKMKMRRDFVCPLPHQAIAALKELHCLTGRSRWLFPGVGAKNPTISENTINKVFATIGYKGRLVGHGTRHTASTLLREHGWPKEHVEAQLAHKEEGLEHHHHHH” it is “failed”; for “MTQQLFTLFAVFISLFLFGMAVMRAGLLTMNAEKARVGILRFVDNPLKGFFVGLLLTILLQSSSAVMIVTIGFVAAGYVTFRQSIGIILGTNVGTCFTVELIALDLHSLIVPLLLIGLIGLAIPHLITYCLGCVSFGLACIFISMNGLENLASPLAAIPAIQAFIELTNDWLIVGAGVGTLLTALIQSSTATTAIAMGFLNEEIIGIHGGIAIMLGANIGTCFTALLASIGSGRTSRLVAFAHLWLNVIGVLLFIPLIPHLSHFVMTLTTIPAIQLAHASTIFNVICSLAILPFVKPFASFIETLHGPSQ” it is “failed”.
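Note: failed if final PepcDB status was selected cloned or expressed and not failed if soluble or beyond.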
